Data from paper PMC13418734.

Experiments:
[1] = molecular target: Fluc^A12C-K329C (Fluc^NDS1, N-terminal domain sensor) (firefly); test: FRET or BRET; single-molecule FRET (TIRF) within AF555/AF647-labelled Fluc immobilised on a neutravidin coverslip; the low-FRET (<0.3) state is read as DnaK bound; DnaJ 0.6 uM, DnaK 20 uM, GrpE 1.2 uM and HtpG 10 uM (KJEG); ATP; imaging buffer, room temperature
[2] = molecular target: Fluc^K378C-K496C (Fluc^CDS1, C-terminal domain sensor) (firefly); test: as above

“DnaK (Escherichia coli Hsp70) (from UniProt P0A6Y8 1-638) (natural protein)” gave a percent of the time DnaK bound (<0.3 FRET) after 15 min [1] of 15% and a percent of the time DnaK bound (<0.3 FRET) after 15 min [2] of 15%.
